Reference: PMC5443481, “Binding of CIB1 to the αIIb tail of αIIbβ3 is required for FAK recruitment and activation in platelets” (PLoS ONE, 2017)
One block for each molecule: values may come before it.

How the values were obtained:
[1] = target: calcium- and integrin-binding protein 1 (CIB1) (human (endogenous in platelets)) (UniProt Q99828); test: co-IP; anti-CIB1 immunoprecipitates (overnight 4°C, protein G-Sepharose) of pre-cleared 1% Nonidet P-40 lysates of washed human platelets exposed to BSA or immobilized Fg for ~45 min; blots for αIIb, FAK, c-Src; treatments: DMSO, BAPTA-AM (50 μM), cytochalasin D after adhesion
[2] = target: T1, calcium- and integrin-binding protein 1 (CIB1) (human (endogenous in platelets), UniProt Q99828 1-191); test: cell-based or functional assay
T1 sequence (looked up): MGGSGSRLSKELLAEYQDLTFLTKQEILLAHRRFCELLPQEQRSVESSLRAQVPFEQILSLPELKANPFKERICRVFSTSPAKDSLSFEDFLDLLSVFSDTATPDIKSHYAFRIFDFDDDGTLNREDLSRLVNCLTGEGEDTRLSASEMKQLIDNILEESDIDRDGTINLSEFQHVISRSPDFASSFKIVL

- fold reduction of co-precipitated αIIb with BAPTA-AM against vehicle [1]: 6 fold
Molecule: integrin αIIb subunit of αIIbβ3 (receptor)

- c-Src activation (pY418 blot of lysates) in human platelets on immobilized Fg; inhibition by the incorporated αIIb peptide, which blocks CIB1 with αIIb (m1+m2) [2]: > 8 fold
B1: αIIb cytoplasmic domain peptide (peptide, UniProt P08514 1020-1039, looked up)
peptide: KVGFFKRNRPPLEEDDEEGE
